Data from article PMC4989220, “The role of Rab6a and phosphorylation of non-muscle myosin IIA tailpiece in alcohol-induced Golgi disorganization” (Scientific Reports, 2016).
Positions count from the first letter of the chain named.

Target: the molecule itself
Assay: Western blot of Golgi membrane fraction (dimer band); Rab6a Western blot of the Golgi fraction (sucrose gradient) from control VA-13 cells and hepatocytes from control rats

B1: Rab6a GTPase (natural protein, UniProt P20340 1-208, looked up)
chain: MSTGGDFGNPLRKFKLVFLGEQSVGKTSLITRFMYDSFDNTYQATIGIDFLSKTMYLEDRTVRLQLWDTAGQERFRSLIPSYIRDSTVAVVVYDITNVNSFQQTTKWIDDVRTERGSDVIIMLVGNKTDLADKRQVSIEEGERKAKELNVMFIETSAKAGYNVKQLFRRVAAALPGMESTQDRSREDMIDIKLEKPQEQPVSEGGCSC
notes: Rab6a GTPase, endogenous in VA-13 cells (HepG2 cells expressing ADH); source: endogenous, VA-13 cells (lysate, Golgi fraction, fixed cells)
stoichiometry N: 2

B2: Rab6a GTPase (rat hepatocytes) (natural protein, rat (endogenous in primary hepatocytes), UniProt Q9WVB1 1-208, looked up)
chain: B1 chain with T3A, S202N
notes: Rab6a, endogenous in hepatocytes of male Wistar rats; source: endogenous, primary rat hepatocytes (fixed cells, Golgi fraction)
stoichiometry N: 2
